The values that follow come from publication PMC10454306, “Genome-Wide Identification of GmSPS Gene Family in Soybean and Expression Analysis in Response to Cold Stress”.

In the data set the target is T1, GmICE1 conserved domain (GmICE1-His) (Glycine max, UniProt B8XJY5 275-465).
T1 sequence: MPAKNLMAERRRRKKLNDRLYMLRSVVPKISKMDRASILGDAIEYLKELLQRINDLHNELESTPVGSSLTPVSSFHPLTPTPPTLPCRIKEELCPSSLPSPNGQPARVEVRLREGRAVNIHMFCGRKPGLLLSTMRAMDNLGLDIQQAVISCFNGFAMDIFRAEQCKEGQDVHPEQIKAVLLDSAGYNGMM
The data set is described as follows: EMSA; weakened dose-dependently by unlabeled same-sequence competitor; EMSA kit (Thermo Fisher Scientific); buffer, salt, pH and temperature not stated. The conditions noted are these: protein: recombinant; tags: His (PET-32a vector); chain copies: 2; label: biotin (forward strand); blunt.

B1: GmSPS8 promoter 50 bp probe (-66 to -115) (dsDNA)
DNA 1: AGTCTACACGTGTGTATCTCCATGGCCCACCATTCCTTGCCACGTGTCAA
DNA 2: TTGACACGTGGCAAGGAATGGTGGGCCATGGAGATACACACGTGTAGACT
For B1, the binding result is recorded as “binds”.

B2: GmSPS18 promoter 50 bp probe (-68 to -117) (dsDNA)
DNA 1: GTCTACACGTGTGTATCTCCATGCCCCACCATTCCTGCCACGTGGCAGTG
DNA 2: CACTGCCACGTGGCAGGAATGGTGGGGCATGGAGATACACACGTGTAGAC
On to B2, for which the binding result is given as “binds”.
